# Results as given in IntAct's records for PubMed 29892012.
# B1: Protein VAC14 homolog (Homo sapiens), Q08AM6 (parent)
# chain: MNPEKDFAPLTPNIVRALNDKLYEKRKVAALEIEKLVREFVAQNNTVQIKHVIQTLSQEFALSQHPHSRKGGLIGLAACSIALGKDSGLYLKELIEPVLTCFNDADSRLRYYACEALYNIVKVARGAVLPHFNVLFDGLSKLAADPDPNVKSGSELLDRLLKDIVTESNKFDLVSFIPLLRERIYSNNQYARQFIISWILVLESVPDINLLDYLPEILDGLFQILGDNGKEIRKMCEVVLGEFLKEIKKNPSSVKFAEMANILVIHCQTTDDLIQLTAMCWMREFIQLAGRVMLPYSSGILTAVLPCLAYDDRKKSIKEVANVCNQSLMKLVTPEDDELDELRPGQRQAEPTPDDALPKQEGTASGGPDGSCDSSFSSGISVFTAASTERAPVTLHLDGIVQVLNCHLSDTAIGMMTRIAVLKWLYHLYIKTPRKMFRHTDSLFPILLQTLSDESDEVILKDLEVLAEIASSPAGQTDDPGPLDGPDLQASHSELQVPTPGRAGLLNTSGTKGLECSPSTPTMNSYFYKFMINLLKRFSSERKLLEVRGPFIIRQLCLLLNAENIFHSMADILLREEDLKFASTMVHALNTILLTSTELFQLRNQLKDLKTLESQNLFCCLYRSWCHNPVTTVSLCFLTQNYRHAYDLIQKFGDLEVTVDFLAEVDKLVQLIECPIFTYLRLQLLDVKNNPYLIKALYGLLMLLPQSSAFQLLSHRLQCVPNPELLQTEDSLKAAPKSQKADSPSIDYAELLQHFEKVQNKHLEVRHQRSGRGDHLDRRVVL
# partner: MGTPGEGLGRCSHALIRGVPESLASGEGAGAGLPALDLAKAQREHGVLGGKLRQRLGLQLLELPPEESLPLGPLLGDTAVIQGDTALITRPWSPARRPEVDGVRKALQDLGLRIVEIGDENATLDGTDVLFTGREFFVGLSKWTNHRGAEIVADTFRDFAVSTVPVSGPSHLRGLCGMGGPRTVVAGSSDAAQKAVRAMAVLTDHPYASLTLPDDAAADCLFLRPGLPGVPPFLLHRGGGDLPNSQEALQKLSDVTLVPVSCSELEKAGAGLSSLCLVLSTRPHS
# B2: Protein VAC14 homolog (Homo sapiens), Q08AM6 (parent)
# chain: B1 chain
# partner: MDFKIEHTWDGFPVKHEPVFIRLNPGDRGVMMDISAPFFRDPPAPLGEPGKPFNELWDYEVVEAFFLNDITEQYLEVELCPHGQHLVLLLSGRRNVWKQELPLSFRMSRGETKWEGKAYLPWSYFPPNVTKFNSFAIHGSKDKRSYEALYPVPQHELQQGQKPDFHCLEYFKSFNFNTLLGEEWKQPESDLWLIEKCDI
# B3: Inositol polyphosphate 5-phosphatase K (Homo sapiens), Q9BT40 (parent)
# chain: MSSRKLSGPKGRRLSIHVVTWNVASAAPPLDLSDLLQLNNRNLNLDIYVIGLQELNSGIISLLSDAAFNDSWSSFLMDVLSPLSFIKVSHVRMQGILLLVFAKYQHLPYIQILSTKSTPTGLFGYWGNKGGVNICLKLYGYYVSIINCHLPPHISNNYQRLEHFDRILEMQNCEGRDIPNILDHDLIIWFGDMNFRIEDFGLHFVRESIKNRCYGGLWEKDQLSIAKKHDPLLREFQEGRLLFPPTYKFDRNSNDYDTSEKKRKPAWTDRILWRLKRQPCAGPDTPIPPASHFSLSLRGYSSHMTYGISDHKPVSGTFDLELKPLVSAPLIVLMPEDLWTVENDMMVSYSSTSDFPSSPWDWIGLYKVGLRDVNDYVSYAWVGDSKVSCSDNLNQVYIDISNIPTTEDEFLLCYYSNSLRSVVGISRPFQIPPGSLREDPLGEAQPQI
# partner: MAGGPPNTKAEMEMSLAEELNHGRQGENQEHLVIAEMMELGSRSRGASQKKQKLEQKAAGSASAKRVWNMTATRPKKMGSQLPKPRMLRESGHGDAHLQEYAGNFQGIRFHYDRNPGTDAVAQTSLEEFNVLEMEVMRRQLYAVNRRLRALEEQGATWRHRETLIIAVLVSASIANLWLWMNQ
# B4: Coiled-coil domain-containing protein 120 (Homo sapiens), Q96HB5-4 (parent)
# chain: MRREPRYQGQVGPDIHTDSERTLSSHQPRPLDSTKMEVKGQLISSPTFNAPAALFGEAAPQVKSERLRGLLDRQRTLQEALSLKLQELRKVCLQEAELTGQLPPECPLEPGERPQLVRRRPPTARAYPPPHPNQAHHSLCPAEELALEALEREVSVQQQIAAAARRLALAPDLSTEQRRRRRQVQADALRRLHELEEQLRDVRARLGLPVLPLPQPLPLSTGSVITTQGVCLGMRLAQLSQEDVVLHSESSSLSESGASHDNEEPHGCFSLAERPSPPKAWDQLRAVSGGSPERRTPWKPPPSDLYGDLKSRRNSVASPTSPTRSLPRSASSFEGRSVPATPVLTRGAGPQLCKPEGLHSRQWSGSQDSQMGFPRADPASDRASLFVARTRRSNSSEALLVDRAAGGGAGSPPAPLAPSASGPPVCKSSEVLYERPQPTPAFSSRTAGPPDPPRAARPSSAAPASRGAPRLPPVCGDFLLDYSLDRGLPRSGGGTGWGELPPAAEVPGPLSRRDGLLTMLPGPPPVYAADSNSPLLRTKDPHTRATRTKPCGLPPEAAEGPEVHPNPLLWMPPPTRIPSAGERSGHKNLALEGLRDWYIRNSGLAAGPQRRPVLPSVGPPHPPFLHARCYEVGQALYGAPSQAPLPHSRSFTAPPVSGRYYADFLYPPELSARLSDLTLEGEQSSSSDTQTPGTLV
# partner: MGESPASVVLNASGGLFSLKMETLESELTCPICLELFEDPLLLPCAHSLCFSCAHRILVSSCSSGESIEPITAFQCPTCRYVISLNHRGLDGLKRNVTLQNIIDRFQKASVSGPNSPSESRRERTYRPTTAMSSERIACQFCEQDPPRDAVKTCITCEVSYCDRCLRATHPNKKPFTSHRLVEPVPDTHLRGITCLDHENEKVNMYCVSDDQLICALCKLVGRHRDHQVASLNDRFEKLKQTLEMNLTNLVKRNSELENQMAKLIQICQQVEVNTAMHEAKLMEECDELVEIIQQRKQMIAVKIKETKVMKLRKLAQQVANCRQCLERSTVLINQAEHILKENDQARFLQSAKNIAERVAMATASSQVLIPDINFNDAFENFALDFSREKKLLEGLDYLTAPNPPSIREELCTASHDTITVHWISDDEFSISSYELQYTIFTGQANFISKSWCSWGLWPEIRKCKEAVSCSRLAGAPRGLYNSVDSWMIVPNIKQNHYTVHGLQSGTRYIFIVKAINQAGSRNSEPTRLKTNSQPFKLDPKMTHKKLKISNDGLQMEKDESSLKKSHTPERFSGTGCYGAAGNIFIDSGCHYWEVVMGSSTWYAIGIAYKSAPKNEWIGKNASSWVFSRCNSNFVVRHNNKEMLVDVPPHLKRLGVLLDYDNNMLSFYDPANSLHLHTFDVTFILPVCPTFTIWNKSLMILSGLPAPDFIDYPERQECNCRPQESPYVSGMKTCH
# B5: Protein VAC14 homolog (Homo sapiens), Q08AM6 (parent)
# chain: B1 chain
# partner: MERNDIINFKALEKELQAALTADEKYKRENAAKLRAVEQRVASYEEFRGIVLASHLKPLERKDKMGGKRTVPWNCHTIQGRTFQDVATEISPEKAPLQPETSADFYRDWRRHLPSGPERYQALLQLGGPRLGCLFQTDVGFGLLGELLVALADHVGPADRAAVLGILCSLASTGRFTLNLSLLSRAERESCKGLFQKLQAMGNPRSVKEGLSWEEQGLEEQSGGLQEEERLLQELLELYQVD
# Variants of: B1
# Conditions: with ddah2_human DDAH2, O95865
row,Variant,effect of a mutation on the interaction
1,A127S,with no effect

# Variants of: B2
# Conditions: with cd033_human C4orf33, Q8N1A6
row,Variant,effect of a mutation on the interaction
1,A127S,with no effect

# Variants of: B3
# Conditions: with fate1_human FATE1, Q969F0
row,Variant,effect of a mutation on the interaction
1,R437K,disrupting interaction strength

# Variants of: B4
# Conditions: with trim1_human MID2, Q9UJV3
row,Variant,effect of a mutation on the interaction
1,R346W,with no effect

# Variants of: B5
# Conditions: with daa19_human DNAAF19, Q8IW40
row,Variant,effect of a mutation on the interaction
1,A127S,with no effect
